Measured values reported in patent US20200339678A1 (RIGEL PHARMACEUTICALS, published 2020).
Like-named read-outs stand apart in the source and are kept apart here.

Columns and labels:
[1] = biological target: T1, mouse TIGIT-Fc (mouse, UniProt P86176 29-148); test: comp. ELISA vs PVR
T1 construct: extracellular domain; also called TIGIT-ECD; not shown: Fc
T1 sequence (looked up): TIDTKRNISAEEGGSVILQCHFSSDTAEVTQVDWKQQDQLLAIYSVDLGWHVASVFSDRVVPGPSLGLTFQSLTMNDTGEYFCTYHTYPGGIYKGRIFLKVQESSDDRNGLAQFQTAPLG
Procedure: (§1) Antibodies were serially diluted in a 10-point curve starting at 1 μM in 3-fold steps. […] Units are in microM.

[2] = biological target: T2, biotinylated human TIGIT (human, UniProt Q495A1 22-141, biotinylated (EZ-Link NHS-PEG4-biotin kit)); test: comp. ELISA vs PVR
T2 construct: extracellular domain; also called TIGIT-ECD
T2 sequence (looked up): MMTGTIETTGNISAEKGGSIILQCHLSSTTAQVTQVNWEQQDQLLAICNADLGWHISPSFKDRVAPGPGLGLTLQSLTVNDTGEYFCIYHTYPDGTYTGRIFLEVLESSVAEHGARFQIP
Procedure: as §1

[3] = biological target: T3, His-tagged recombinant Human TIGIT (human, UniProt Q495A1 22-141); test: ELISA
T3 construct: coated antigen of the direct ELISA; not shown: His tag
T3 sequence (looked up): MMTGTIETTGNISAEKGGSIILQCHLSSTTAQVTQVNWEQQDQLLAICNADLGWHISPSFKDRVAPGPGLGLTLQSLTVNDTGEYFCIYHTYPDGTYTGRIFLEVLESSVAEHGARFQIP
Procedure: (§2) Binding affinities for antigen binding to anti-TIGIT monoclonal antibodies were determined by ELISA. […] Antibodies to be tested were diluted to 1 μM in PBS buffer containing 1% BSA and diluted 3-fold in a 10-point curve. […] Detection of the secondary antibody was determined using streptavidin-HRP and TMB reagent. All assays were performed at room temperature. Curve-fitting software was used to determine the EC₅₀ for each antibody.

[4] = biological target: T4, His-tagged recombinant Mouse TIGIT (mouse, UniProt P86176 29-148, limits assumed); test: ELISA
T4 construct: coated antigen of the direct ELISA; not shown: His tag
T4 sequence (looked up): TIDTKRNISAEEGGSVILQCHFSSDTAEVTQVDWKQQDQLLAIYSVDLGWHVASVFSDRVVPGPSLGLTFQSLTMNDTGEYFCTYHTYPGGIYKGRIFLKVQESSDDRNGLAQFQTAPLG
Procedure: as §2

[5] = biological target: T5, human TIGIT fused to a beta galactosidase portion, on YTS cells (YTS_hTIGIT/hGrb2) (human, UniProt Q495A1 22-244); test: cell-based or functional assay
T5 sequence (looked up): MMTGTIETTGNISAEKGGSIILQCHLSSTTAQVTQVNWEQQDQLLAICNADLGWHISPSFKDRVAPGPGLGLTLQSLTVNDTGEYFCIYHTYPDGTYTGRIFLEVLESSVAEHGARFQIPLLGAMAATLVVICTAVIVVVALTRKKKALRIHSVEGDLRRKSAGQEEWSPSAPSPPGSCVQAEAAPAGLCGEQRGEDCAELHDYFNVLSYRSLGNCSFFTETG

[6] = biological target: T6, His-tagged recombinant Human TIGIT (human, UniProt Q495A1 22-141); test: ELISA
T6 construct: Coated on the plate at 0.5 µg/mL in the direct ELISA; also called hTIGIT; not shown: His tag
T6 sequence (looked up): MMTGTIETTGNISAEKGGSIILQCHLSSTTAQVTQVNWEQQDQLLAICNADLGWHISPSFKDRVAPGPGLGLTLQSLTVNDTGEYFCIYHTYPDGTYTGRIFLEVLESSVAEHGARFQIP
Procedure: as §2

[7] = biological target: T7, His-tagged recombinant Mouse TIGIT (mouse, UniProt P86176 29-148, limits assumed); test: ELISA
T7 construct: Coated on the plate at 0.5 µg/mL in the direct ELISA; not shown: His tag
T7 sequence (looked up): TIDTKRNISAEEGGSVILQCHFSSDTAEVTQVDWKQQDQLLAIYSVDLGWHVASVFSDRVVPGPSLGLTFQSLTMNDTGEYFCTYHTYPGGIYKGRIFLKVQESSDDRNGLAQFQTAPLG
Procedure: as §2

[8] = biological target: T8, human TIGIT expressed in YTS cells, fused to a portion of beta galactosidase (human, UniProt Q495A1 22-244); test: cell-based or functional assay
T8 sequence (looked up): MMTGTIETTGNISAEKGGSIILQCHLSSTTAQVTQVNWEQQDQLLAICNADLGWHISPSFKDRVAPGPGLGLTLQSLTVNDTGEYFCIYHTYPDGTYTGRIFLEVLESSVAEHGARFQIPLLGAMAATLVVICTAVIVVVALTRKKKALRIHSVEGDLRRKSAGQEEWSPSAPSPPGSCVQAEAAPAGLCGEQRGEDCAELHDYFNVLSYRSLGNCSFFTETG

[9] = biological target: T9, biotinylated human TIGIT extra cellular domain (human, UniProt Q495A1 22-141, biotinylated using the EZ-Link NHS-PEG4-biotin kit); test: competitive ELISA vs coated PVR
T9 construct: extracellular domain; also called human TIGIT-ECD
T9 sequence (looked up): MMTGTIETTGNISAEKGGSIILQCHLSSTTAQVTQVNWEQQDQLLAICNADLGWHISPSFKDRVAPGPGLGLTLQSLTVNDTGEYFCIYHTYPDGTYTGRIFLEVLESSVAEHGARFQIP
Procedure: as §1

[10] = biological target: T10, mouse TIGIT-Fc (mouse, UniProt P86176 29-148); test: competitive ELISA vs coated PVR
T10 construct: extracellular domain; also called mouse TIGIT-ECD; not shown: Fc
T10 sequence (looked up): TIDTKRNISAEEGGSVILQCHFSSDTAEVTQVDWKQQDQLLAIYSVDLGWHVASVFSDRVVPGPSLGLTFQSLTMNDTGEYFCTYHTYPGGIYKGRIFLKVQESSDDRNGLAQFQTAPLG
Procedure: as §1

[11] = biological target: T11, human TIGIT fused to a beta galactosidase fragment, expressed on YTS cells (human, UniProt Q495A1 22-244); test: cell-based or functional assay
T11 sequence (looked up): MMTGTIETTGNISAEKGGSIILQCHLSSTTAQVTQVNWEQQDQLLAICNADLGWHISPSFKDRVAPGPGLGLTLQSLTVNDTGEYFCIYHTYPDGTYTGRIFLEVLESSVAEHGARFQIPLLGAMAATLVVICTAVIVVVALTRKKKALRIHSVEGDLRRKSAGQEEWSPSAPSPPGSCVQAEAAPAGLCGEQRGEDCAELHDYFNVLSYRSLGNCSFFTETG

[12] = biological target: T12, biotinylated human TIGIT (human, UniProt Q495A1 22-141, biotinylated (EZ-Link NHS-PEG4-biotin kit)); test: competitive ELISA, biotin-hTIGIT to coated PVR
T12 construct: extracellular domain; also called human TIGIT extra cellular domain; TIGIT-ECD
T12 sequence (looked up): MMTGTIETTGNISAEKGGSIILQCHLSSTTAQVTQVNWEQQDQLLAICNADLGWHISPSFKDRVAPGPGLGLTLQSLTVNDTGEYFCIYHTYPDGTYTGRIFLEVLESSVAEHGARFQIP
Procedure: as §1

[13] = biological target: T13, mouse TIGIT-Fc (mouse, UniProt P86176 29-148); test: competitive ELISA, mTIGIT-Fc to coated PVR
T13 construct: extracellular domain; also called mouse TIGIT extra cellular domain
T13 sequence (looked up): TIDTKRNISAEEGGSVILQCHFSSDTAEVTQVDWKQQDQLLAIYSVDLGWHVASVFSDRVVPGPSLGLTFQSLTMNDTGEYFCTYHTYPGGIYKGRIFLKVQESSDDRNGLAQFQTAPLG
Procedure: as §1

[14] = biological target: T11, human TIGIT fused to a beta …; test: cell-based or functional assay; remark: listed apart in the source
[15] = biological target: T11, human TIGIT fused to a beta …; test: cell-based or functional assay; remark: listed apart in the source
[16] = biological target: T11, human TIGIT fused to a beta …; test: cell-based or functional assay; remark: listed apart in the source

B1: Ab53i4 (antibody, V domains shown)
VH: EVQLLESGGGLVQPGGSLRLSCAASGFTFSSYGMHWVRQAPGKGLEWVASIKSSSSNKYYADSVKGRFTISRDNSKNTLYLQMNSLRAEDTAVYYCARGPYDVWLDYWGQGTLVTVSS
VL: not shown
notes: mIgG2a of Ab53, S33G
[1]
  IC50: 48.2 nM
[2]
  IC50: 6.7 nM
[3]
  EC50: 1.1 nM
[4]
  EC50: 4.6 nM
[5]
  YTS_hTIGI/hGrbs_EFC_Agonism, 221_WT: 0.0185 µM
  YTS_hTIGI/hGrbs_EFC_Antagonism, 221_hPVR/ICAM: 0.45 µM

B2: Ab143 (Fab, V domains shown)
VH: EVQLLESGGGLVQPGGSLRLSCAASGFTFSSYSMHWVRQAPGKGLEWVAAINSNAGSSSYADSVKGRFTISRDNSKNTLYLQMNSLRAEDTAVYYCARVPYGVWMDYWGQGTLVTVSS
VL: not shown
notes: ARV
[6]
  EC50: 3.4 nM
[7]
  EC50: 5.7 nM
[8]
  YTS_hTIGI/hGrbs_EFC_Agonism (EC50): > 1000 nM
  YTS_hTIGI/hGrbs_EFC_Antagonism (IC50): 60.2 nM
  YTS_hTIGIT/hTIGIT_EFC (EC50): 4.7 nM
[9]
  IC50: 20.3 nM
[10]
  IC50: 22 nM

B3: Ab53i2 (antibody, V domains shown)
VH: EVQLLESGGGLVQPGGSLRLSCAASGFTFSSYSMHWVRQAPGKGLEWVASIKSSSSNKYYADSVKGRFTISRDNSKNTLYLQMNSLRAEDTAVYYCARGPYDVWLDYWGQGTLVTVSS
VL: not shown
notes: hIgG1 of Ab53
[1]
  IC50: 1.5 nM
[2]
  IC50: 0.6 nM
[3]
  EC50: 0.1 nM
[4]
  EC50: 0.2 nM
[5]
  YTS_hTIGI/hGrbs_EFC_Antagonism, 221_hPVR/ICAM: 0.0675 µM

B4: Ab143 (Fab, V domains shown)
VH: EVQLLESGGGLVQPGGSLRLSCAASGFTFSSYSMHWVRQAPGKGLEWVAAINSNAGSSSYADSVKGRFTISRDNSKNTLYLQMNSLRAEDTAVYYCARVPYGVWMDYWGQGTLVTVSS
VL: not shown
notes: clone from a phage library of monovalent human Fabs; also called clone Ab143
[11]
  IC50 of inhibition of Grb2 recruitment (YTS_hTIGIT/hGrb2, 221_hPVR/ICAM, 11 pt): 60.2 nM
[12]
  IC50: 20.3 nM
[13]
  IC50: 22 nM
[14]
  EC50 of induced dimerization (YTS_hTIGIT/hTIGIT, 11 pt): 4.7 nM

B5: Ab53 (Fab, V domains shown)
VH: EVQLLESGGGLVQPGGSLRLSCAASGFTFSSYSMHWVRQAPGKGLEWVASIKSSSSNKYYADSVKGRFTISRDNSKNTLYLQMNSLRAEDTAVYYCARGPYDVWLDYWGQGTLVTVSS
VL: not shown
notes: clone from a phage library of monovalent human Fabs; also called clone Ab53
[15]
  EC50 of induced dimerization (YTS_hTIGIT/hTIGIT, 11 pt): 2.7 nM
[12]
  IC50: 9 nM
[13]
  IC50: 35.3 nM
[16]
  IC50 of inhibition of Grb2 recruitment (YTS_hTIGIT/hGrb2, 221_hPVR/ICAM, 11 pt): 30.3 nM

B6: Ab40 (Fab, V domains shown)
VH: EVQLLESGGGLVQPGGSLRLSCAASGFTFSSYGMNWVRQAPGKGLEWVAGIKYSSGNKYYADSVKGRFTISRDNSKNTLYLQMNSLRAEDTAVYYCARGPYDVWMDYWGQGTLVTVSS
VL: not shown
notes: clone from a phage library of monovalent human Fabs; also called clone Ab40
[15]
  EC50 of induced dimerization (YTS_hTIGIT/hTIGIT, 11 pt): 9.5 nM
[12]
  IC50: 3.8 nM
[13]
  IC50: > 1000 nM
[16]
  IC50 of inhibition of Grb2 recruitment (YTS_hTIGIT/hGrb2, 221_hPVR/ICAM, 11 pt): 2.3 nM

B7: Ab53i3 (antibody, V domains shown)
VH: EVQLLESGGGLVQPGGSLRLSCAASGFTFSSYGMHWVRQAPGKGLEWVASIKSSSSNKYYADSVKGRFTISRDNSKNTLYLQMNSLRAEDTAVYYCARGPYDVWLDYWGQGTLVTVSS
VL: not shown
notes: hIgG1 of Ab53, S33G
[1]
  IC50: 18.5 nM
[2]
  IC50: 8.3 nM
[3]
  EC50: 0.8 nM
[4]
  EC50: 6.3 nM
[5]
  YTS_hTIGI/hGrbs_EFC_Agonism, 221_WT: 0.0042 µM
  YTS_hTIGI/hGrbs_EFC_Antagonism, 221_hPVR/ICAM: > 1 µM

B8: Ab53i1 (antibody, V domains shown)
VH: EVQLLESGGGLVQPGGSLRLSCAASGFTFSSYSMHWVRQAPGKGLEWVASIKSSSSNKYYADSVKGRFTISRDNSKNTLYLQMNSLRAEDTAVYYCARGPYDVWLDYWGQGTLVTVSS
VL: not shown
notes: mIgG2a of Ab53
[1]
  IC50: 4.2 nM
[2]
  IC50: 1.6 nM
[3]
  EC50: 0.3 nM
[4]
  EC50: 0.4 nM
[5]
  YTS_hTIGI/hGrbs_EFC_Antagonism, 221_hPVR/ICAM: 0.0259 µM
